B1: Twister Ribozyme (parent)
chain: AACACUGCCAAUGCCGGUCCCAAGCCCGGAUAAAAGUGGAGGGGGCGG

Variants of B1 are the subject of this series. Briefly: self-cleavage, relative activity (ratio to wild type); higher = more cleavage; co-transcriptional.
Take C8U G43U: the self-cleavage came out at 0.131.

In the case of C8U G24C, the self-cleavage was determined as 0.0664. As for C8U G24A, the self-cleavage was found to be 0.772. As for C8U C9A, the self-cleavage was 0.112.

As for C9A, the self-cleavage was found to be 0.776.

Turning to C9G, the self-cleavage was 0.733. The result for C8U A11G reads 0.551; that for C9A U18A, 0.0887; that for C9A U18C, 0.0799. With C9A A35U, the self-cleavage was determined as 0.628.

As to C9A A35G, the self-cleavage was determined as 0.548. The value for C9A A35C was 0.66. Regarding C8U G28C, the self-cleavage stood at 0.469. Consider C8U G28A, for which the self-cleavage came to 0.446.

For the variant C8U C20G, the self-cleavage amounted to 0.0649. The value for C8U C20U was 0.308; that for C8U G48A was 0.45; that for C8U G48C was 0.652. The value for C9G C26G was 0.083. The result for C9G C26A reads 0.115; that for C8U G16U, 0.459; that for C8U G16A, 0.442. Consider C8U G16C, for which the self-cleavage was 0.199. Consider C9A C46U, for which the self-cleavage was determined as 0.758. The value for C9A C46A was 0.426.

Consider C9A A22C, for which the self-cleavage worked out at 0.642. The result for C9A A22G reads 0.101; that for C9A A22U, 0.259. Turning to C8U G47C, the self-cleavage is 0.199. With C8U G47U, the self-cleavage is 0.345. On to C8U G47A, for which the self-cleavage was 0.43. Take C9G A23G: the self-cleavage was found to be 0.0809.

On to C9G A23U, for which the self-cleavage turned out to be 0.0839.

In the case of C8U C19G, the self-cleavage turned out to be 0.0901. The value for C8U C19A was 0.0797; that for C9G C15U was 0.479; that for C9G C25U was 0.194. For the variant C9G C25A, the self-cleavage came out at 0.0478.

For the variant C9G C25G, the self-cleavage stood at 0.0708.

In the case of C9G C20U, the self-cleavage is 0.23. The value for C9A G43U was 0.149; that for C9A G43A was 0.153. The value for C9A G41A was 0.145; that for C9A G41C was 0.123. Take C8U C46A: the self-cleavage amounted to 0.5. The value for C8U C46U was 0.726; that for C8U C46G was 0.567. The value for C8U A35G was 0.559; that for C9A G16C was 0.087; that for C9A G16A was 0.372. The value for C8U U31G was 0.603; that for C8U U31A was 0.592; that for C8U G39C was 0.147. For the variant C9G C21U, the self-cleavage is 0.0793. The value for C9G C21G was 0.115. The value for C9A C26U was 0.06; that for C8U was 0.777; that for C8U U37C was 0.284.

On to C8U U37A, for which the self-cleavage was 0.307. The value for C9G A34U was 0.47. The result for C8G U31C reads 0.497. C8G U31A: the self-cleavage is 0.472. The result for C8U G42C reads 0.217. Regarding C8U G41U, the self-cleavage was found to be 0.117.

As for C8U G41C, the self-cleavage is 0.0951. In the case of C9G C14U, the self-cleavage was 0.624. For C9G C14A, the self-cleavage turned out to be 0.536. With C8U A10U, the self-cleavage amounted to 0.582. The result for C8U A10C reads 0.755; that for C8U A10G, 0.655; that for C8U G44A, 0.658. As to C8U G44C, the self-cleavage amounted to 0.598.

Turning to C9A C25G, the self-cleavage is 0.0787. The result for C9A C25U reads 0.185; that for C8U A40U, 0.17. The result for C8U A40C reads 0.202; that for C9A C27U, 0.304. The value for C9A C27A was 0.103; that for C9A C27G was 0.0551. On to C9A U31A, for which the self-cleavage worked out at 0.72. The result for C9A U12C reads 0.795; that for C9A G24U, 0.111. The value for C9A G24A was 0.0968.

As to C9G A11C, the self-cleavage worked out at 0.764. The result for C9A C20G reads 0.0801. The value for C8U A23G was 0.107; that for C8U A23U was 0.078. With C9A A34U, the self-cleavage turned out to be 0.535.

Consider C9A A34G, for which the self-cleavage worked out at 0.501. The result for C9A C15A reads 0.35. The value for C9A C15U was 0.567; that for C8U C15G was 0.0382; that for C8U C15U was 0.768. The result for C8U C15A reads 0.318; that for C8U G45U, 0.313. With C9A G38C, the self-cleavage was 0.589. The value for C9A G38A was 0.393; that for C9A U37C was 0.16; that for C9A G36C was 0.107. Turning to C8U G13U, the self-cleavage turned out to be 0.103. The result for C8U C14G reads 0.0673. The result for C8U C14U reads 0.791; that for C8U C14A, 0.63; that for C9A A30C, 0.608. Take C9A A30G: the self-cleavage was determined as 0.846. On to C9A A30U, for which the self-cleavage is 0.725. The value for C9A G39U was 0.131.

As to C9A G39A, the self-cleavage worked out at 0.167. For the variant C9A A32G, the self-cleavage is 0.729. The value for C9A A32C was 0.665. For the variant C8G U37G, the self-cleavage stood at 0.108. The value for C8G U37A was 0.115. The value for C8G U37C was 0.131; that for C8U G38U was 0.481; that for C8U G38A was 0.572. The result for C8U U18A reads 0.0657; that for C8U A32G, 0.385.

For C8U A32U, the self-cleavage turned out to be 0.515. The value for C8U A22C was 0.863; that for C9A A10G was 0.648. In the case of C9A A10U, the self-cleavage came out at 0.646. C9A A10C: the self-cleavage is 0.574. Turning to C9A A33G, the self-cleavage was found to be 0.522. The result for C9A A33U reads 0.638; that for C8U A30C, 0.15; that for C8U A30G, 0.766. C9A G28U: the self-cleavage is 0.53. Regarding C9A G28C, the self-cleavage was 0.636.

As to C9A G28A, the self-cleavage turned out to be 0.598.

In the case of C8U C21A, the self-cleavage was found to be 0.0385.

On to C9G A35G, for which the self-cleavage amounted to 0.591. The value for C9G A35U was 0.695; that for C9A C19A was 0.089; that for C9A C19G was 0.0837.

C9A G17U: the self-cleavage was 0.0549. Consider C9A G17C, for which the self-cleavage was 0.0631. The result for C8U G36U reads 0.109; that for C8U G36C, 0.106. On to C8U G36A, for which the self-cleavage was 0.18. For C9A G13A, the self-cleavage worked out at 1.09. The result for C9A G13C reads 0.729; that for C9A G48U, 0.451. For C9A G48C, the self-cleavage stood at 0.541. Take C9A G48A: the self-cleavage was found to be 0.357. The value for C9A G44C was 0.425; that for C9A G44A was 0.664; that for C8U U12A was 0.825. The result for C8U U12C reads 0.753. The value for C9A A23G was 0.055.

As for C8U G17A, the self-cleavage is 0.119. The value for C8U G17U was 0.0946; that for C8U G17C was 0.0682.

In the case of C9A A40G, the self-cleavage is 0.129.

C9A G45C: the self-cleavage was 0.131.

Take C9A G45A: the self-cleavage is 0.41.

Take C8U C26G: the self-cleavage was found to be 0.0721.

On to C8U C26U, for which the self-cleavage was 0.061.

On to C8U G29C, for which the self-cleavage was 0.117.

Consider C9G A30C, for which the self-cleavage stood at 0.649. Consider C9G A30U, for which the self-cleavage stood at 0.62.

As to C9A C14A, the self-cleavage turned out to be 0.61. The value for C9A C14U was 0.697; that for C9G A32U was 0.517; that for C9A G42C was 0.288.

For C9G A22G, the self-cleavage is 0.0988. The result for C9G A22C reads 0.708; that for C9G A22U, 0.187.

Values taken from the RNAGym collection of RNA variant scans (doi:10.7554/elife.80360).
